{"source": "paper PMC8156467", "about": "“Disruption of YY1-EZH2 Interaction Using Synthetic Peptides Inhibits Breast Cancer Development” (Cancers, 2021)", "binders": {"B1": {"name": "GST-EZH2 (385–618) (domain or fragment)", "chain": "not shown", "notes": "Vector pGEX-4T-1; source: E. coli; held on Glutathione-Sepharose beads from bacterial lysate (pull-down); purified (SPR)"}, "B2": {"name": "GST-EZH2 (465–545) (domain or fragment)", "chain": "not shown", "notes": "as for B1"}, "B3": {"name": "GST-EZH2 (465–519) (domain or fragment)", "chain": "not shown", "notes": "Vector pGEX-4T-1; source: E. coli; held on Glutathione-Sepharose beads from bacterial lysate"}}}
{"molecular_target": "T1, His×6-YY1 (UniProt P25490 1-414)", "T1 construct": "Yin Yang 1 (YY1); The construct and its host are not described in the methods; also called purified His×6-YY1", "T1 sequence (P25490 whole entry, the tested form may be a part)": "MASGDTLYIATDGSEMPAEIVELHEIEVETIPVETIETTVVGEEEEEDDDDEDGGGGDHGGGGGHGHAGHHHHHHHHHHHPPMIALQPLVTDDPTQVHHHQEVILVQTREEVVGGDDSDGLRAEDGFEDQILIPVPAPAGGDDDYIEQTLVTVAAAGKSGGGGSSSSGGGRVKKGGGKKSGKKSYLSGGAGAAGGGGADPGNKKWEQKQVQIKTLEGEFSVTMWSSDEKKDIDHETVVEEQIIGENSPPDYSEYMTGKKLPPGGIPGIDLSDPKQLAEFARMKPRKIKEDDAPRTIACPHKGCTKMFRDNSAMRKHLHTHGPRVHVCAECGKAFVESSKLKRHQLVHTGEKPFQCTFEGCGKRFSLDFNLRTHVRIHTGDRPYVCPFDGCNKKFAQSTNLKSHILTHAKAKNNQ", "assay": "pull-down; GST-EZH2 fragments from E. coli lysates held on Glutathione-Sepharose beads, washed, 1.0 µg of purified His×6-YY1 added for 4 h at 4 °C; 20 mM Tris-HCl pH 7.5, 150 mM NaCl, 0.1% NP-40", "settings": "both partners purified"}
{"binder": "B1", "binding result": "binds"}
{"binder": "B2", "binding result": "binds"}
{"binder": "B3", "binding result": "binds"}
